The record followed here is US20120277142A1 (HANALL BIOPHARMA, published 2012).

The labels stand for the following.
B1: TNFRI126-A6 (receptor)
chain: MDSVCPQGKYIHPQNNSICCTKCHKGTYLYNDCPGPGQDTDCRECESGSFTALENFLPACLSCSKCRKEMGQVEISSCTVDRDTVCGCRKNQYRHYWSENLFQCFNCSLCLNGTVHLSCQEKQNTVC
notes: Met-TNFRI126 mutant made in E. coli
B2: TNFRI126-A8 (receptor)
chain: MDSVCPQGKYIHPQNNSICCTKCHKGTYLYNDCPGPGQDTDCRECESGSFTAFENFLPACLSCSKCRKEMGQVEISSCTVDRDTVCGCRKNQYRHYWSENLFQCFNCSLCLNGTVHLSCQEKQNTVC
notes: as for B1
B3: TNFRI126-A12 (receptor)
chain: MDSVCPQGKYIHPQNNSICCTKCHKGTYLYNDCPGPGQDTDCRECESGSFTANENFLPACLSCSKCRKEMGQVEISSCTVDRDTVCGCRKNQYRHYWSENLFQCFNCSLCLNGTVHLSCQEKQNTVC
notes: as for B1
B4: TNFRI126-A7 (receptor)
chain: MDSVCPQGKYIHPQNNSICCTKCHKGTYLYNDCPGPGQDTDCRECESGSFTAPENFLPACLSCSKCRKEMGQVEISSCTVDRDTVCGCRKNQYRHYWSENLFQCFNCSLCLNGTVHLSCQEKQNTVC
notes: as for B1
B5: TNFRI126-A15 (receptor)
chain: MDSVCPQGKYIHPQNNSICCTKCHKGTYLYNDCPGPGQDTDCRECESGSFTAYENFLPACLSCSKCRKEMGQVEISSCTVDRDTVCGCRKNQYRHYWSENLFQCFNCSLCLNGTVHLSCQEKQNTVC
notes: as for B1
B6: TNFRI126-A18 (receptor)
chain: MDSVCPQGKYIHPQNNSICCTKCHKGTYLYNDCPGPGQDTDCRECESGSFTAHENFLPACLSCSKCRKEMGQVEISSCTVDRDTVCGCRKNQYRHYWSENLFQCFNCSLCLNGTVHLSCQEKQNTVC
notes: as for B1
B7: TNFRI126-A14 (receptor)
chain: MDSVCPQGKYIHPQNNSICCTKCHKGTYLYNDCPGPGQDTDCRECESGSFTATENFLPACLSCSKCRKEMGQVEISSCTVDRDTVCGCRKNQYRHYWSENLFQCFNCSLCLNGTVHLSCQEKQNTVC
notes: as for B1
B8: TNFRI126-A9 (receptor)
chain: MDSVCPQGKYIHPQNNSICCTKCHKGTYLYNDCPGPGQDTDCRECESGSFTAMENFLPACLSCSKCRKEMGQVEISSCTVDRDTVCGCRKNQYRHYWSENLFQCFNCSLCLNGTVHLSCQEKQNTVC
notes: as for B1
B9: TNFRI126-A10 (receptor)
chain: MDSVCPQGKYIHPQNNSICCTKCHKGTYLYNDCPGPGQDTDCRECESGSFTAWENFLPACLSCSKCRKEMGQVEISSCTVDRDTVCGCRKNQYRHYWSENLFQCFNCSLCLNGTVHLSCQEKQNTVC
notes: as for B1
B10: TNFRI126-A13 (receptor)
chain: MDSVCPQGKYIHPQNNSICCTKCHKGTYLYNDCPGPGQDTDCRECESGSFTAQENFLPACLSCSKCRKEMGQVEISSCTVDRDTVCGCRKNQYRHYWSENLFQCFNCSLCLNGTVHLSCQEKQNTVC
notes: as for B1
B11: TNFRI126-A16 (receptor)
chain: MDSVCPQGKYIHPQNNSICCTKCHKGTYLYNDCPGPGQDTDCRECESGSFTAKENFLPACLSCSKCRKEMGQVEISSCTVDRDTVCGCRKNQYRHYWSENLFQCFNCSLCLNGTVHLSCQEKQNTVC
notes: as for B1
B12: TNFRI126-A17 (receptor)
chain: MDSVCPQGKYIHPQNNSICCTKCHKGTYLYNDCPGPGQDTDCRECESGSFTARENFLPACLSCSKCRKEMGQVEISSCTVDRDTVCGCRKNQYRHYWSENLFQCFNCSLCLNGTVHLSCQEKQNTVC
notes: as for B1

In the assay the target is T1, TNF-α (UniProt P01375 77-233, limits assumed).
T1 construct: also called tumor necrosis factor; ligand
T1 sequence (P01375 77-233 limits assumed): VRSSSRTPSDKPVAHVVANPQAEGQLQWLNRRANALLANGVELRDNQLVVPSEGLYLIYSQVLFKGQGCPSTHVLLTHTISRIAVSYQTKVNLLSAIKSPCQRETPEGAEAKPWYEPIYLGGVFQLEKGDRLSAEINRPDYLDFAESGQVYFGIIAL
The assay is described as follows: competition ELISA: sample vs plate-bound TNFRI190 for TNF-α, from IC50, relative to wild-type TNFRI126. The method, then:
Each well was washed three times with 300 μL of washing buffer (0.05% Tween-20, PBS, pH 7.4) and incubated at room temperature for 2 hours with 300 μL of a blocking buffer (5% skim milk, PBS, pH 7.4). Then, each well was washed as mentioned above. A sample of interest was diluted to concentrations of 500 nM, 125 nM, 31 nM, 7.8 nM, 1.9 nM, 0.48 nM, 0.12 nM, and 0.03 nM in series and loaded in an amount of 100 μL into each well in duplicate. To each well was added 100 μL of 50 ng/ml TNF-α, followed by incubation at room temperature for 2 hours. After the wells were washed with a washing buffer, 100 μg/mL anti-TNF-α antibody solution was diluted 1/1000, added in an amount of 100 μL per each well, and incubated at room temperature for 2 hours. After the plates were washed with a washing buffer, a substrate was added in an amount of 100 μL to each well and reacted at room temperature for 15 min. In each well, 100 μL of the substrate 3,3′,5,5′-tetramethylbenzidine (RnD, Cat. No: DY999) was reacted at room temperature for 15 min, followed by adding 50 μL of 1.0 M sulfuric acid (Samchun Chemical, Cat. No: 52129) to each well to stop the reaction.
Affinity of Met-TNFRI and Met-TNFRI mutants for TNF-α was determined by measuring an absorbance change with concentration and evaluating IC₅₀ value by measuring an absorbance change with concentration.
Background: ELISA stands for enzyme-linked immunosorbent assay.
B1: the “Affinity (%)” value worked out at 741%.

Consider B2, for which the “Affinity (%)” value was 865%.

B3: the “Affinity (%)” value stood at 659%. Under B4 stands 600%; under B5, 941%; under B6, 1010%. Regarding B7, the “Affinity (%)” value came to 765%. Take B8: the “Affinity (%)” value turned out to be 941%.

As to B9, the “Affinity (%)” value is 800%. Under B10 stands 806%.

Take B11: the “Affinity (%)” value turned out to be 882%. Under B12 stands 771%.
